Positions of bridges follow the written chain, without caps; N, C: chain ends. No end group written: not given here.
Legend:
peptide B-40-47 = target: T1, peptide B-40-47 (Homo sapiens, UniProt Q9BXY4, disulfide (positions not given here); also: biotinylated, intrachain disulfide, Cys pairing not given here); assay: ELISA: biotinylated cyclic peptide (1 µg/ml) on NeutrAvidin plate, hB1, anti-human IgG-Fc-HRP, OD 450 [B]
T1 construct: synthetic cyclic peptide, a.a; also called cyclic peptide a.a; 40-47 derived from hRSPO3
T1 peptide (looked up): CQGGCATC
Protocol: (§1) FIG. 9 is a set of schematics and graphs showing epitope studies of several α-RSPO3 antibodies. […] Streptavidin-HRP was then added for detection of the bound biotinylated antibody. (B) The biotinylated cyclic peptides, at 1 μg/ml, and biotinylated recombinant human RSPO3, at 100 ng/ml, were applied to NeutrAvidin pre-coated plates. […] To detect bound anti-RSPO3 antibodies, Goat anti-human IgG-Fc-HPR (Chemicon) was then applied to the plates.
(§2) Further conformation epitope studies of α-RSPO3 Abs were performed using recombinant RSPO3 truncated proteins and cyclic peptides scanning to narrow down their target sequences. […] RSPO3 contains a furin-like cysteine-rich region. Until now, the 3D structure of RSPO3 has not been reported. Additionally, four cyclic peptides (a.a. 40-47, 44-53, 56-75 and 79-94) were designed to measure the binding of α-RSPO3 mAbs to the cyclic peptides derived from hRSPO3.

peptide B-79-94 = target: T2, peptide B-79-94 (Homo sapiens, UniProt Q9BXY4, disulfide 1-16 (inferred); also: biotinylated); assay: as above
T2 construct: synthetic cyclic peptide, a.a; also called cyclic peptide a.a; 79-94 derived from hRSPO3
T2 peptide (looked up): CPSGYYGTRYPDINKC
Protocol: as §1, §2

peptide B-44-53 = target: T3, peptide B-44-53 (Homo sapiens, UniProt Q9BXY4, disulfide (positions not given here); also: biotinylated, intrachain disulfide, Cys pairing not given here); assay: as above
T3 construct: synthetic cyclic peptide, a.a; also called cyclic peptide a.a; 44-53 derived from hRSPO3
T3 peptide (looked up): CATCSDYNGC
Protocol: as §1, §2

[1] = target: T4, recombinant human RSPO3 protein (human, UniProt Q9BXY4 22-272); assay: cell-based or functional assay
T4 sequence (looked up): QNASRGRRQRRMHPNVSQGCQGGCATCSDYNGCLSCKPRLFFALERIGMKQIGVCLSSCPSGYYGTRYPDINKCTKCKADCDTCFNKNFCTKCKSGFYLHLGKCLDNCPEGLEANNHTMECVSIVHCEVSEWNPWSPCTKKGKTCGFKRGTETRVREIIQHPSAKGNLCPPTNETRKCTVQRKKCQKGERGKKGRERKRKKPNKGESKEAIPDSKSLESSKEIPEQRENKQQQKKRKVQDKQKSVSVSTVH

[2] = target: T4, recombinant human RSPO3 protein; assay: SPR (Biacore T200); hRSPO3 immobilised on CM5 chip, antibody injected, single-cycle, 1:1 model
Protocol: FIG. 7 is a graph showing use of Biacore to measure the binding kinetics of α-RSPO3 Abs-antigen interaction. The binding sensorgrams were generated using a Biacore T200 and then fitted to a simple 1:1 interaction model. […] The association was monitored for 2 min, and the final dissociation time was 15 min hRSPO3 was immobilized on a CMS chip at 27.5 RU.
The binding kinetics between α-RSPO3 Abs and recombinant human RSPO3 protein (hRSPO3) were performed at 25° C. using a Biacore T200 biosensor equipped with a CMS Series S Sensor Chip (GE Healthcare). […] Obtained sensorgrams were corrected by double subtracting the signal obtained on a reference surface and the signal of the running buffer. Sensograms were fit globally with BIAcore T200 evaluation software 3.0 using 1:1 binding model to yield affinity constants (KD values) for α-RSPO3 Abs. Replicate measurements were made in separate experiments, using independently prepared α-RSPO3 Abs dilution series and huRSPO3-coated chip surfaces.

[3] = target: T4, recombinant human RSPO3 protein; assay: competition ELISA on coated hRSPO3; blocked ligand: biotinylated LGR5 (22-560)-Fc, streptavidin-HRP [A]
Protocol: After removing extra detection antibodies by washing the plates with 1× PBST, a TMB substrate solution was added to each well for 10 minutes.
Recombinant human RSPO3 (Peprotech) at 500 ng/ml was coated on the plates.

binding result (peptide B-40-47): no binding | binding result (peptide B-79-94): no binding | binding result (peptide B-44-53): no binding | IC50 in the WNT reporter assay (MDA-MB436 TCF/LEF-Luc, Wnt3a plus hRSPO3) [1]: 58 nM | Kd [2]: 0.0268 nM | koff [2]: 3.4e-05 s⁻¹ | kon [2]: 1.7e+06 M⁻¹ s⁻¹ | IC50 (read off the curve) [3]: ~0.9 µg/mL
B1: humanized anti-RSPO3 antibody hB1 (antibody, V domains shown)
VH: QIQLQESGPGLVKPSESLSLTCSVTGYSITSGYYWNWIRQFPGNGLEWMGYISYDGTNNYNPSLKDRISITRDTSKNQFFLKLNSVTAADTATYYCSVLLIQYFNIWGKGTTVTVSS
VL: DIQMTQSPSSLSASVGERVTITCRTSESVNNFLAWFHQKPGKSPKLLVYHAKTLADGVSSRFSGSGSGTQYSLKINSLQPEDFGNYYCQHFWSIPWTFGGGTKLEIKR
notes: Humanized from murine B1

From patent publication US20210163580A1 (NATIONAL HEALTH RESEARCH INSTITUTES, published 2021)
